{"source": "patent US20110281938", "about": "“APTAMERS TO TISSUE FACTOR PATHWAY INHIBITOR AND THEIR USE AS BLEEDING DISORDER THERAPEUTICS” (Baxter Healthcare S.A., published 2011)", "key": {"[1]": {"biological_target": "T1, TFPI (tissue factor pathway inhibitor, full-length) (Homo sapiens, UniProt P10646 SEQ:1-276)", "test": "competition; fails binding-competition criterion; FXa yes", "settings": "tags: American Diagnostica 4500PC/4900PC, E. coli expressed", "method": "(§1) Each molecule was evaluated for binding to tissue factor pathway inhibitor (TFPI) in a binding-competition assay. For these experiments, 10 nM human TFPI (American Diagnostica, Stamford, Conn., catalog #4500PC) was incubated with trace amounts of radiolabeled ARC17480 and 5000 nM, 1666.67 nM, 555.56 nM, 185.19 nM, 61.73 nM, 20.58 nM, 6.86 nM, 2.29 nM, 0.76 nM or 0.25 nM of unlabeled competitor aptamer. ARC17480 was included as a competitor in every experiment as a control. For each molecule, the percentage of radiolabeled ARC17480 bound at each competitor aptamer concentration was used for analysis. The percentage of radiolabeled ARC17480 bound was plotted as a function of aptamer concentration and fit to the equation y=(max/(1+x/IC₅₀))+int, where y=the percentage of radiolabeled ARC17480 bound, x=the concentration of aptamer, max=the maximum radiolabeled ARC17480 bound, and int=the y-intercept, to generate an IC₅₀ value for binding-competition. The IC₅₀ of each aptamer was compared to the IC₅₀ of ARC17480 that was evaluated in the same experiment. A substitution was considered tolerated in the binding-competition assay if the IC₅₀ of that molecule was not more than 5-fold greater than that of ARC17480 evaluated in the same experiment. Tolerated substitutions are indicated in Table 38 as meeting the assay criteria (“yes”) or not meeting the assay criteria (“no”)."}, "[2]": {"biological_target": "T1, TFPI (tissue factor pathway inhibitor, …)", "test": "competition; fails binding-competition criterion; CAT yes", "settings": "tags: American Diagnostica 4500PC/4900PC, E. coli expressed", "method": "The substituted ARC17480 molecules were assayed for binding and function. The assays used for this evaluation were the calibrated automated thrombogram (CAT) assay, a dot-blot binding-competition assay and a FXa activity assay. The results of these assays are summarized in Table 40 and depicted in FIG. 147. A mutation was considered tolerated for activity if it met the criteria of at least two of the three assays that were carried out. Mutations that are tolerated (“yes”) and not tolerated (“no”) are identified in Table 40. The experimental details and the criteria used for each assay are described in the following paragraphs. The molecules described in this example were first tested in the CAT assay and the dot-blot binding-competition assay. In most cases, molecules were only tested in the FXa assay if there was a discrepancy between the results in the CAT assay and the dot-blot binding-competition assay.\nEach molecule was evaluated for binding to tissue factor pathway inhibitor (TFPI) in a binding-competition assay. […] The IC₅₀ of each aptamer was compared to the IC₅₀ of ARC17480 that was evaluated in the same experiment. A mutation was considered tolerated in the binding-competition assay if the IC₅₀ of that molecule was not more than 5-fold greater than that of ARC17480 evaluated in the same experiment. […]"}, "[3]": {"biological_target": "T1, TFPI (tissue factor pathway inhibitor, …)", "test": "competition; negative control, no competition with ARC17480 in dot blot", "settings": "tags: American Diagnostica 4500PC/4900PC, E. coli expressed"}, "Truncated TFPI-K1K2": {"biological_target": "Truncated TFPI-K1K2 (UniProt P10646 SEQ:1-161)", "test": "filter; no detectable binding up to 500 nM", "settings": "tags: American Diagnostica, E. coli expressed; label: radiolabel", "method": "Trace amounts of radiolabeled ARC17480 were incubated with different concentrations of truncated TFPI-K1K2 (500 nM-0.008 nM) and the K3-C-terminal domain protein (500 nM-0.7 nM) (Table 1). […] Trace amounts of radiolabeled ARC17480 were incubated with different concentrations of the C-terminal peptide (10 μM-0.17 nM) (Table 1). Neutravidin (˜100 nM monomer) was then added to the binding solution to assist in the capture of aptamer:peptide complexes on a nitrocellulose filter. The amount of radiolabeled aptamer captured on a nitrocellulose filter was quantitated and compared to the total amount of radiolabeled aptamer to generate a binding curve, which is shown in FIG. 17B."}, "Kallikrein": {"biological_target": "Kallikrein (UniProt P03952;P03952 P03952:20-390,P03952:391-638)", "test": "filter; no significant affinity up to 0.5-1 uM", "settings": "label: radiolabel"}, "Heparin cofactor II": {"biological_target": "T2, Heparin cofactor II (UniProt P05546 P05546:20-499)", "T2 sequence": "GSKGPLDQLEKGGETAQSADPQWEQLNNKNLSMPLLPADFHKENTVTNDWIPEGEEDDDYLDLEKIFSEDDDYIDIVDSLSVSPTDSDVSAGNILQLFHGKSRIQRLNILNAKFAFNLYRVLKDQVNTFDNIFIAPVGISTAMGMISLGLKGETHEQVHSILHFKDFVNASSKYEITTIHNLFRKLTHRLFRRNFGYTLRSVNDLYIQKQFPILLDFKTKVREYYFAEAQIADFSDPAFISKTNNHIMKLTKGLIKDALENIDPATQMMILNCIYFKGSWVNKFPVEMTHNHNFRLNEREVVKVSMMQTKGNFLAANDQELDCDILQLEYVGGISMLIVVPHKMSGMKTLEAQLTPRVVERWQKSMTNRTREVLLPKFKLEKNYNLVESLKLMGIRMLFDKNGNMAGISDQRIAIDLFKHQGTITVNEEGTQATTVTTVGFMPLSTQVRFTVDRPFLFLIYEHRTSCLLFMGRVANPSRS", "test": "filter; no significant affinity up to 0.5-1 uM", "settings": "label: radiolabel"}, "Factor VIIa": {"biological_target": "Factor VIIa (UniProt P08709;P08709 P08709:61-212,P08709:213-466)", "test": "filter; no significant affinity up to 0.5-1 uM", "settings": "label: radiolabel"}, "Factor Xa": {"biological_target": "Factor Xa (UniProt P00742;P00742 P00742:41-179,P00742:235-488)", "test": "filter; no significant affinity up to 0.5-1 uM", "settings": "label: radiolabel"}, "TFPI-2": {"biological_target": "T3, TFPI-2 (UniProt P48307 P48307:23-235)", "T3 sequence": "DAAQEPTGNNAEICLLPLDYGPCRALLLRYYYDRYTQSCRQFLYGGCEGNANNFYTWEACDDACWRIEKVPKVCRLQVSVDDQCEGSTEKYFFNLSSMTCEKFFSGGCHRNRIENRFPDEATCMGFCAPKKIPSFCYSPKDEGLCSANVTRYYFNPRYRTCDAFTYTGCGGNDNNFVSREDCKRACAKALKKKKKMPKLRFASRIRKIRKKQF", "test": "filter; no significant affinity up to 0.5-1 uM", "settings": "label: radiolabel"}, "Factor XIa": {"biological_target": "Factor XIa (UniProt P03951;P03951 P03951:19-387,P03951:388-625)", "test": "filter; no significant affinity up to 0.5-1 uM", "settings": "chain copies: 2; label: radiolabel"}, "Antithrombin (ATIII)": {"biological_target": "Antithrombin (ATIII) (UniProt P01008 P01008:33-464)", "test": "filter; no significant affinity up to 0.5-1 uM", "settings": "label: radiolabel"}, "Factor Va": {"biological_target": "Factor Va (UniProt P12259;P12259 P12259:29-737,P12259:1574-2224)", "test": "filter; no significant affinity up to 0.5-1 uM", "settings": "label: radiolabel"}, "Factor IXa": {"biological_target": "Factor IXa (UniProt P00740;P00740 P00740:47-191,P00740:227-461)", "test": "filter; no significant affinity up to 0.5-1 uM", "settings": "label: radiolabel"}, "[4]": {"biological_target": "alpha-1 antitrypsin (serpin-A1) (UniProt P01009 P01009:25-418)", "test": "filter; no significant affinity up to 0.5-1 uM", "settings": "label: radiolabel"}, "Prothrombin": {"biological_target": "Prothrombin (UniProt P00734 P00734:44-622)", "test": "filter; no significant affinity up to 0.5-1 uM", "settings": "label: radiolabel"}, "Plasmin": {"biological_target": "Plasmin (UniProt P00747;P00747 P00747:97-580,P00747:581-810)", "test": "filter; no significant affinity up to 0.5-1 uM", "settings": "label: radiolabel"}, "alpha-Thrombin": {"biological_target": "alpha-Thrombin (UniProt P00734;P00734 P00734:328-363,P00734:364-622)", "test": "filter; no significant affinity up to 0.5-1 uM"}, "[5]": {"biological_target": "T1, TFPI (tissue factor pathway inhibitor, …)", "test": "competition; competition with 20 nM ARC19499, plate assay", "settings": "tags: American Diagnostica 4500PC/4900PC, E. coli expressed", "method": "In order to assess the affinity of ARC19498 towards TFPI protein, an ARC19499:TFPI binding competition assay was set up. Recombinant human TFPI protein (0.5 mg/mL) was diluted in DPBS to a final concentration of 15 μg/mL, and 100 μL was added to a 96-well Maxisorb plate and incubated overnight at 4° C. The TFPI solution was then removed and the plate was subsequently washed 3 times with 200 μL wash buffer (DPBS+0.05% Tween 20) at room temperature. The plate was then blocked with 200 μL of 10 mg/mL BSA in DPBS for 30 minutes at room temperature. The BSA blocking solution was then removed and the plate was washed again 3 times with 200 μL wash buffer. ARC19498 was serially diluted and mixed at different concentrations with 20 nM ARC19499 in DPBS in 0.1% BSA. The ARC19498:ARC19499 mixtures were added to the plate and incubated for 3 hours at room temperature. After washing 3 times with 200 μL wash buffer, 100 μL of 0.5 μg/mL rabbit monoclonal anti-PEG antibody (Epitomics) was added to the plate and incubated for 60 minutes at room temperature. The anti-PEG antibody solution was then removed and the plate was washed as described above. […] The assay plate was then read at 450 nm using a Victor³V 1420 multilabel counter (Perkin Elmer). […] The IC₅₀ was calculated based on 4-parameter logistics using Graphpad Prism 4 software."}, "[6]": {"biological_target": "T1, TFPI (tissue factor pathway inhibitor, …)", "test": "competition; fails binding-competition criterion; CAT and FXa yes", "settings": "tags: American Diagnostica 4500PC/4900PC, E. coli expressed", "method": "as §1"}}, "data": [{"binder": "GGAAUAUACUUGGCUCGUAGGUGCGUAUAUA (mixed, 2'-OMe A/G/U, 2'-deoxy C, 3' idT)", "note": "[ARC33132]", "values": [{"measurement": "binding signal", "setting": "[1]", "result": "> 5 fold IC50 of ARC17480"}]}, {"binder": "GGAAUAUACUUGGCUCGUUAUGUGCGUAUAUA (mixed, 2'-OMe A/G/U, 2'-deoxy C, 3' idT)", "note": "[ARC33169]", "values": [{"measurement": "binding signal", "setting": "[2]", "result": "> 5 fold IC50 of ARC17480"}]}, {"binder": "GGAAUAUACUUGGCUGCUUAGGUGCGUAUAUA (mixed, 2'-OMe A/G/U, 2'-deoxy C, 3' idT)", "note": "[ARC32603]", "values": [{"measurement": "binding result", "setting": "[3]", "result": "no binding"}]}, {"binder": "GGAAUAUACUUGGCUCGUUAGGUGCGUAUAUA (mixed, 2'-OMe A/G/U, 2'-deoxy C, 3' idT)", "note": "[ARC17480]", "values": [{"measurement": "binding result", "setting": "Truncated TFPI-K1K2", "result": "no binding"}, {"measurement": "binding result", "setting": "Kallikrein", "result": "no binding"}, {"measurement": "binding result", "setting": "Heparin cofactor II", "result": "no binding"}, {"measurement": "binding result", "setting": "Factor VIIa", "result": "no binding"}, {"measurement": "binding result", "setting": "Factor Xa", "result": "no binding"}, {"measurement": "binding result", "setting": "TFPI-2", "result": "no binding"}, {"measurement": "binding result", "setting": "Factor XIa", "result": "no binding"}, {"measurement": "binding result", "setting": "Antithrombin (ATIII)", "result": "no binding"}, {"measurement": "binding result", "setting": "Factor Va", "result": "no binding"}, {"measurement": "binding result", "setting": "Factor IXa", "result": "no binding"}, {"measurement": "binding result", "setting": "[4]", "result": "no binding"}, {"measurement": "binding result", "setting": "Prothrombin", "result": "no binding"}, {"measurement": "binding result", "setting": "Plasmin", "result": "no binding"}, {"measurement": "binding result", "setting": "alpha-Thrombin", "result": "no binding"}]}, {"binder": "GGAAUAUACUUGGCUCGUUAGGUGCGUAUAUA (mixed, 5'-hexylamine, 2'-OMe A/G/U, 2'-deoxy C, 3' idT)", "note": "[ARC19498]", "values": [{"measurement": "IC50", "setting": "[5]", "result": 20, "unit": "nM"}]}, {"binder": "UAUACUUGGCUCGUUAGGUGCGUAU (mixed, 2'-OMe A/G/U, 2'-deoxy C, 3' idT)", "note": "[ARC33889]", "values": [{"measurement": "binding signal", "setting": "[6]", "result": "> 5 fold IC50 of ARC17480"}]}]}
